Reference: patent US20120316071A1 (published 2012)

What was measured:
[1] = target: T1, rHuman HGF R/c-MET/Fc Chimera, CF (R&D Systems Cat#358-MT/CF) (human, UniProt P08581 25-932); test: ECL Multispot (MSD) assay, antigen spotted on plate, 10 nM Fab; blank spot of this row 344
T1 construct: Bought reagent; also called HGF R/Fc; hepatocyte growth factor receptor; Fc part of the bought chimera not given

[2] = target: T2, rHuman IGF-1 sR, CF (R&D Systems Cat#391-GR) (human, UniProt P08069 31-932); test: as above
T2 construct: Bought soluble receptor; The column head prints only 'IGF-1'; also called insulin-like growth factor-1 soluble receptor

[3] = target: T3, rHuman Erythropoietin R/Fc Chimera, CF (R&D Systems Cat#963-ER) (human, UniProt P19235 25-250); test: as above
T3 construct: Bought reagent; also called EPO R; EPO R/Fc; Fc part of the bought chimera not given
T3 sequence (looked up): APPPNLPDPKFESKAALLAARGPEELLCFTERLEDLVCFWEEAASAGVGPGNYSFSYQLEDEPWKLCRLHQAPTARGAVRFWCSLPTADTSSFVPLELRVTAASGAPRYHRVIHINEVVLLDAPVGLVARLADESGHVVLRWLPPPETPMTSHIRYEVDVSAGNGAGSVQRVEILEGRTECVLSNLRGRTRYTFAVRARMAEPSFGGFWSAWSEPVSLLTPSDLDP

[4] = target: T4, rHuman P-Cadherin/Fc Chimera, CF (R&D Systems Cat#861-PC) (human, UniProt P22223 108-654); test: as above
T4 construct: Bought reagent; Fc part of the bought chimera not given

[5] = target: T5, rHuman Notch-1/Fc Chimera, CF (R&D Systems Cat#3647-TK) (human, UniProt P46531 19-526); test: as above
T5 construct: Bought reagent; Fc part of the bought chimera not given

[6] = target: T6, rHuman ErbB2/Fc Chimera, CF (R&D Systems Cat#1129-ER) (human, UniProt P04626 23-652); test: as above
T6 construct: Bought reagent; also called human epidermal growth factor 2 receptor; Fc part of the bought chimera not given

[7] = target: T7, rHuman EGF R/Fc Chimera, CF (R&D Systems Cat#344-ER) (human, UniProt P00533 25-645); test: as above
T7 construct: Bought reagent; also called epidermal growth factor receptor; Fc part of the bought chimera not given

[8] = target: T8, rHuman Erythropoietin R/Fc Chimera, CF (R&D Systems Cat#963-ER) (human, UniProt P19235 25-250); test: MSD multispot ECL, antigen spotted on plate; Fab 0.51 uM; blank spot 1096
T8 construct: Bought recombinant protein; also called EPO R/Fc; Epo R; Fc part of the bought chimera not given
T8 sequence (looked up): T3 sequence (looked up)

[9] = target: T9, rHuman HGF R/c-MET/Fc Chimera, CF (R&D Systems Cat#358-MT/CF) (human, UniProt P08581 25-932); test: as above
T9 construct: Bought recombinant protein; also called HGF R/Fc; hepatocyte growth factor receptor; Fc part of the bought chimera not given

[10] = target: T10, rHuman IGF-1 sR, CF (R&D Systems Cat#391-GR) (human, UniProt P08069 31-932); test: as above
T10 construct: Bought recombinant soluble receptor; also called insulin-like growth factor-1 soluble receptor

[11] = target: T11, Recombinant Human DLL4 (R&D Systems Cat#1506-D4/CF) (human, UniProt Q9NR61 27-524); test: as above
T11 construct: Bought recombinant protein; also called delta-like protein 4; rHuman DLL4

[12] = target: T12, rHuman CD44/Fc Chimera, CF (R&D Systems Cat#3660-CD) (human, UniProt P16070 21-220); test: as above
T12 construct: Bought recombinant protein; Fc part of the bought chimera not given

[13] = target: T13, rHuman ErbB2/Fc Chimera, CF (R&D Systems Cat#1129-ER) (human, UniProt P04626 23-652); test: as above
T13 construct: Bought recombinant protein; also called human epidermal growth factor 2 receptor; Fc part of the bought chimera not given

[14] = target: T14, rHuman Notch-1/Fc Chimera, CF (R&D Systems Cat#3647-TK) (human, UniProt P46531 19-526); test: as above
T14 construct: Bought recombinant protein; Fc part of the bought chimera not given

[15] = target: T15, rHuman EGF R/Fc Chimera, CF (R&D Systems Cat#344-ER) (human, UniProt P00533 25-645); test: as above
T15 construct: Bought recombinant protein; also called epidermal growth factor receptor; Fc part of the bought chimera not given

[16] = target: T16, rHuman P-Cadherin/Fc Chimera, CF (R&D Systems Cat#861-PC) (human, UniProt P22223 108-654); test: as above
T16 construct: Bought recombinant protein; Fc part of the bought chimera not given

[17] = target: T17, rHuman HGF R/c-MET/Fc Chimera, CF (R&D Systems Cat#358-MT/CF) (human, UniProt P08581 25-932); test: MSD Multispot ECL, antigen spotted on plate, Fab 32.5 nM; blank spot 473
T17 construct: Bought reagent; also called HGF R/Fc; hepatocyte growth factor receptor; Fc part of the bought chimera not given

[18] = target: T18, rHuman IGF-1 sR, (IGF-1 sR), CF (R&D Systems Cat#391-GR) (human, UniProt P08069 31-932); test: as above
T18 construct: Bought soluble receptor; also called insulin-like growth factor-1 soluble receptor

B1: Fab VH1-46_IGHD6-6*01_IGHJ1*01 S102A/S103P/S104F (APF) & L6_IGKJ1*01 (Fab, V domains shown)
VH: QVQLVQSGAEVKKPGASVKVSCKASGYTFTSYYMHWVRQAPGQGLEWMGIINPSGGSTSYAQKFQGRVTMTRDTSTSTVYMELSSLRSEDTAVYYCAREEYAPFSAEYFQHWGQGTLVTVSS
VL: not shown
notes: Tested as a Fab made in E. coli; also called H:APF & L:wt; APF triple mutant
B1 gave an ECL signal [1] of 434, an ECL signal [2] of 293 and an ECL signal [3] of 389. For the same binder, the ECL signal [4] was 293, the ECL signal [5] was 363 and the ECL signal [6] was 356. For the same binder, the ECL signal [7] was 371.

B2: Fab VH4-34_IGHD7-27*01_IGHJ4*01 & L5_IGKJ1*01 (Fab, V domains shown)
VH: QVQLQQWGAGLLKPSETLSLTCAVYGGSFSGYYWSWIRQPPGKGLEWIGEINHSGSTNYNPSLKSRVTISVDTSKNQFSLKLSSVTAADTAVYYCARANWGDYFDYWGQGTLVTVSS
VL: DIQMTQSPSSVSASVGDRVTITCRASQGISSWLAWYQQKPGKAPKLLIYAASSLQSGVPSRFSGSGSGTDFTLTISSLQPEDFATYYCQQANSFPPWTFGQGTKVEIKR
notes: Germline library Fab expressed in E. coli; VH was cloned into Plasmid A, which adds CH1 with His6 and Flag tags
B2 showed an ECL signal [8] of 2620, an ECL signal [9] of 1990 and an ECL signal [10] of 2240. The ECL signal [11] was 5180, the ECL signal [12] was 2010 and the ECL signal [13] was 1530. For the same binder, the ECL signal [14] was 2770, the ECL signal [15] was 2360 and the ECL signal [16] was 2390.

B3: Fab VH1-8_IGHD2-2*01_IGHJ6*01 & L12_IGKJ1*01 (Fab, V domains shown)
VH: QVQLVQSGAEVKKPGASVKVSCKASGYTFTSYDINWVRQATGQGLEWMGWMNPNSGNTGYAQKFQGRVTMTRNTSISTAYMELSSLRSEDTAVYYCARGGYCSSTSCYADYYYYYGMDVWGQGTTVTVSS
VL: not shown
Work on B3 yielded an ECL signal [17] of 525 and an ECL signal [18] of 561.
